This passage reports EC50 results from patent publication US20240116985A1 (published 2024).

Starred links: 1 amine or outer side, 2 acyl side, 3 side chain; linkers in the order of their positions; H or OH if unused. Positions of bridges follow the written chain, without caps; N, C: chain ends. Non-standard residues stand in square brackets, D forms with d. Primed or numbered codes have the meaning given here. *: point of attachment. B5(18) = 2,2-bis(4-pentenyl)glycine (2-amino-2-(pent-4-en-1-yl)hept-6-enoic acid), stitching residue, C=CCCCC(CCCC=C)(N[*:1])C(=O)[*:2]; B5(24) = 2-amino-2-(pent-4-en-1-yl)hept-6-enoic acid, 2,2-bis(4-pentenyl)glycine (stitching residue), C=CCCCC(CCCC=C)(N[*:1])C(=O)[*:2]; B5(4) = 2,2-bis(4-pentenyl)glycine = 2-amino-2-(pent-4-en-1-yl)hept-6-enoic acid (stitching residue), C=CCCCC(CCCC=C)(N[*:1])C(=O)[*:2]; B5(3) = 2,2-bis(4-pentenyl)glycine (stitching residue), C=CCCCC(CCCC=C)(N[*:1])C(=O)[*:2]; B5 = 2-amino-2-(pent-4-en-1-yl)hept-6-enoic acid, C=CCCCC(CCCC=C)(N[*:1])C(=O)[*:2]; Phe(F5) = N[C@@H](Cc1c(F)c(F)c(F)c(F)c1F)C(=O)O; Phe(3,4-F2) = N[C@@H](Cc1ccc(F)c(F)c1)C(=O)O; Phe(3-Me) = Cc1cccc(C[C@H](N)C(=O)O)c1; 2Nal = N[C@@H](Cc1ccc2ccccc2c1)C(=O)O; Bta = N[C@@H](Cc1csc2ccccc12)C(=O)O; αAllylPro = C=CC[C@@]1(C(=O)O)CCCN1; hPhe = N[C@@H](CCc1ccccc1)C(=O)O; 3Pal = N[C@@H](Cc1cccnc1)C(=O)O; S8 = C=CCCCCCC[C@](C)(N)C(=O)O; Picolinoyl = O=C(c1ccccn1)*; Nle = CCCC[C@H](N)C(=O)O Where only a bound is given, the exact number is not on record here.

As usually defined, the EC50 is the concentration that produces a half-maximal response.

T1: full-length beta-Catenin (Uniprot ID P35222) (Homo sapiens (Human), UniProt P35222 1-781)
T1 construct: The assay text says 'full-length beta-Catenin (Uniprot ID P35222)'; also called bCat; B-Catenin
T1 sequence: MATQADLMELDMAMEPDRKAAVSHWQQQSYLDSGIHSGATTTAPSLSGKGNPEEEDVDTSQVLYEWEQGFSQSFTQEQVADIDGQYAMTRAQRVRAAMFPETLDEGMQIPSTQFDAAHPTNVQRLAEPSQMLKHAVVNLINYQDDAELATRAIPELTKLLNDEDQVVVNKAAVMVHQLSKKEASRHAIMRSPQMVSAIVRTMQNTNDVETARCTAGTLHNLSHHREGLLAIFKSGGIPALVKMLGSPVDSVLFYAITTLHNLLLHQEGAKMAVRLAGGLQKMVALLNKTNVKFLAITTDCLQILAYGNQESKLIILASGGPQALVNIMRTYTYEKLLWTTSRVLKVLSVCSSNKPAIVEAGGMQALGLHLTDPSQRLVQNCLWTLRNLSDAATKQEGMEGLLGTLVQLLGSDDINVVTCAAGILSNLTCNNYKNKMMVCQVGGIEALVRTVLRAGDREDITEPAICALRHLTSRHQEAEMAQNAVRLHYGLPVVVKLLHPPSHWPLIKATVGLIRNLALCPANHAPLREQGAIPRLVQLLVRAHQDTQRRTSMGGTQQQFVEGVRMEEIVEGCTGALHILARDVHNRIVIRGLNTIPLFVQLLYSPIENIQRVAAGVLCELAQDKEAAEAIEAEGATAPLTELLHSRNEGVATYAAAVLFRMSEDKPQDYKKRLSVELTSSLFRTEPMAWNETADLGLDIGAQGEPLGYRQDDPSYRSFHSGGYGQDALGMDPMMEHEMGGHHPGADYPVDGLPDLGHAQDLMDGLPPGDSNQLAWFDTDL

T2: full-length beta-Catenin (Uniprot ID P35222) (Homo sapiens (Human), UniProt P35222 1-781)
T2 construct: Used full-length in the FP and AlphaScreen assays; also called B-Catenin; bCat
T2 sequence: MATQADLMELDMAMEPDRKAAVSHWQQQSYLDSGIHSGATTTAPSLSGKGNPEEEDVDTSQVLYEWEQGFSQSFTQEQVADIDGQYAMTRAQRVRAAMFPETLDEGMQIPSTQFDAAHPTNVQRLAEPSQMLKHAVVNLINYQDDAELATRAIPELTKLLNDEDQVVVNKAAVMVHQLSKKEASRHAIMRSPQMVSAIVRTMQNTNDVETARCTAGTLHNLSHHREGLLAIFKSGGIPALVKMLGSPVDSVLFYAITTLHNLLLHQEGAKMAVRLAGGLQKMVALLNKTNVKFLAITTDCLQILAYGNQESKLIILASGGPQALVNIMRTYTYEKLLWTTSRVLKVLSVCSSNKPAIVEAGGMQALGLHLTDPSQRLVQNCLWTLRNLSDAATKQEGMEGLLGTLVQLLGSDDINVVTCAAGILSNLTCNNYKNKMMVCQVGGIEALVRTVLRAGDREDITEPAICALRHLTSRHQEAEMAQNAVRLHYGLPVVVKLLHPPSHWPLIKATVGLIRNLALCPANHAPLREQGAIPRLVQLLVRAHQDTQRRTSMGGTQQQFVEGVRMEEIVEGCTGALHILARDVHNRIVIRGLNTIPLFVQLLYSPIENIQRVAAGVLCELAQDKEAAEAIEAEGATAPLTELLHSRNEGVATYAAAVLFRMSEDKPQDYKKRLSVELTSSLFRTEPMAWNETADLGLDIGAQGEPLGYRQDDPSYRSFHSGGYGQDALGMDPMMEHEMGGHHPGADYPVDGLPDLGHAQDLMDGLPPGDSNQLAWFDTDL

B1: I-601 (peptide)
peptide: XDIXDEAAFQXFXQ
modifications: Bnc-PL3-Asp-Ile-B5-Asp-Glu-Ala-Ala-Phe-Gln-S8-Phe-BztA-Gln-NH2; stapled PL3(1)-B5(4) and B5(4)-S8(11) by olefin metathesis
notes: Stapled peptide composition; N-terminal cap Bnc; same description as I-600, later eluting HPLC peak (staple isomer)
B2: I-581 (peptide)
peptide: XDIXDDAAFQXFXH
modifications: not fully specified; Ac-PL3-Asp-Ile-B5-Asp-Asp-Ala-Ala-Phe-Gln-S8-Phe-BztA-His-NH2; stapled PL3(1)-B5(4) and B5(4)-S8(11) by olefin metathesis
notes: Stapled peptide composition; same description as I-580, later eluting HPLC peak (staple isomer)
B3: I-578 (peptide)
peptide: XDAXDDAAFQXFXQ
modifications: not fully specified; Ac-PL3-Asp-Ala-B5-Asp-Asp-Ala-Ala-Phe-Gln-S8-Phe-BztA-Gln-NH2; stapled PL3(1)-B5(4) and B5(4)-S8(11) by olefin metathesis
notes: Stapled peptide composition; the description may be misprinted
B4: I-602 (peptide)
peptide: XDIXDEAAFQXFXQ
modifications: 2PyPrpc-PL3-Asp-Ile-B5-Asp-Glu-Ala-Ala-Phe-Gln-S8-Phe-BztA-Gln-NH2; stapled PL3(1)-B5(4) and B5(4)-S8(11) by olefin metathesis
notes: Stapled peptide composition; N-terminal cap 2PyPrpc
B5: I-576 (peptide)
peptide: XDLXDEAAFNXFXQ
modifications: not fully specified; Ac-PL3-Asp-Leu-B5-Asp-Glu-Ala-Ala-Phe-Asn-S8-Phe-BztA-Gln-NH2; stapled PL3(1)-B5(4) and B5(4)-S8(11) by olefin metathesis
notes: Stapled peptide composition; same description as I-577, earlier eluting HPLC peak (staple isomer)
B6: I-599 (peptide)
peptide: Picolinoyl-[αAllylPro]DI[B5]DEAAFQ[S8]F[Bta]Q-NH2
modifications: staple 1-4, 4-11
notes: Stapled peptide composition; N-terminal cap Pic
B7: I-596 (peptide)
peptide: XDIXDEAAFQXFXQK
modifications: not fully specified; Ac-PL3-Asp-Ile-B5-Asp-Glu-Ala-Ala-Phe-Gln-S8-Phe-BztA-Gln-[AzAc]Lys-NH2; stapled PL3(1)-B5(4) and B5(4)-S8(11) by olefin metathesis
notes: Stapled peptide composition
B8: I-586 (peptide)
peptide: Ac-[αAllylPro]DI[B5(24)]DEAA[Bta]Q[S8]FFQ-NH2
modifications: staple 1-4, 4-11; not fully specified; printed as Ac-PL3-Asp-Ile-B5-Asp-Glu-Ala-Ala-BztA-Gln-S8-Phe-Phe-Gln-NH2
notes: Stapled peptide composition
B9: I-197 (peptide)
peptide: Ac-[αAllylPro]DA[B5(4)][hPhe]EAAFV[S8]FWQ-NH2
modifications: staple 1-4, 4-11
notes: Stapled peptide composition; this is the later-eluting isomer composition
B10: I-196 (peptide)
peptide: Ac-[αAllylPro]DA[B5(4)][hPhe]EAAFV[S8]FWQ-NH2
modifications: staple 1-4, 4-11
notes: Stapled peptide composition; this is the earlier-eluting isomer composition

The target of the first assay is T1, full-length beta-Catenin (Uniprot ID …). As to the kind of experiment: fluorescence polarization competition; full-length beta-catenin, competitor 5FAM-TCF4(10-53) probe. The procedure: The plate was incubated protected from light for 60 minutes at 20° C. prior to read. Reads were performed on a CLARIOstar plate reader (BMG Labtech) in duplicate, and data were fitted to a 1:1 binding model with hill slope using an in-house script. All provided concentrations are final concentrations.
Background: In fluorescence polarisation assays a small probe gives low polarisation when free and higher when bound to something large.
B1: the EC50 is 419 nM.
On the same count and under the same terms, the figure for B2 is 112 nM.
In the case of B3, the EC50 came out at 5000 nM.
In turn, B4 had an EC50 of 3150 nM.
On the same count and under the same terms, as for B5, the figure is 23 nM.
The same measure, in the same setting: the figure for Ac-[αAllylPro]DI[B5(24)]FEAAFQ[S8]D[Bta]Q-NH2 (staple 1-4, 4-11, Stapled peptide composition) [I-587] is 5000 nM; for B6 it is 138 nM; for Ac-[αAllylPro]DI[B5]DDAAFQ[S8]F[Bta]H-NH2 (staple 1-4, 4-11; not fully specified, Stapled peptide composition) [I-580] it is 114 nM.
On the same count and under the same terms, the figure for B7 is 112 nM; for B8 it is 5000 nM.

The target of a further assay is T2, full-length beta-Catenin (Uniprot ID …). As to the kind of experiment: AlphaScreen (nickel chelate) competition; full-length beta-catenin + biotin-TCF4(10-53) probe as competitor; peptide titrated. The procedure:
Equal volume of the titrated peptide was added to the plate and incubated for 15 minutes at 20° C. Then 4 uL of donor and 4 uL acceptor beads at 10 ug/mL were added to the plate, for a 16 uL reaction pool and protected from light for 60 minutes at 20° C. prior to read. Reads were performed on a CLARIOstar plate reader (BMG Labtech) in duplicate, and data were fitted to a 1:1 binding model with hill slope using an in-house script. All provided concentrations are final concentrations.
As for Ac-[αAllylPro][Phe(3-Me)]A[B5(3)]DEAAFV[S8]FWQ-NH2 (staple 1-4, 4-11, Stapled peptide composition) [I-203], the EC50 came out at 5.99 µM.
Still for that read-out and setting: as for Ac-[αAllylPro]DA[B5(4)]D[hPhe]AAFV[S8]FWQ-NH2 (staple 1-4, 4-11, Stapled peptide composition) [I-195], the figure is 2.18 µM; as for Ac-[αAllylPro]DA[B5(18)]DEAA[Phe(3,4-F2)]A[S8]F[2Nal]A-NH2 (staple 1-4, 4-11, Stapled peptide composition) [I-185], 2.66 µM; as for Ac-[αAllylPro]DA[B5(4)][3Pal]EAAFV[S8]FWQ-NH2 (staple 1-4, 4-11, Stapled peptide composition) [I-213], 8.05 µM.
Same read-out and setting: as for B9, the figure is 6.15 µM; as for Ac-[αAllylPro]DA[B5(3)][Nle]EAAFV[S8]FWQ-NH2 (staple 1-4, 4-11, Stapled peptide composition) [I-205], not below 10 µM; as for Ac-[αAllylPro]DA[B5(4)]DEAAFV[S8][Phe(F5)]WQ-NH2 (staple 1-4, 4-11, Stapled peptide composition) [I-183], 3.77 µM.
On to B10, for which the EC50 amounted to 5.51 µM.
